Laboratory results from publication PMC10094722, “How Single Amino Acid Substitutions Can Disrupt a Protein Hetero-Dimer Interface: Computational and Experimental Studies of the LigAB Dioxygenase from Sphingobium sp. Strain SYK-6” (International Journal of Molecular Sciences, 2023).
Where “and” joins values, the source holds several entries; their conditions need not be identical. Identical values can stand only once. Values belong to the binder of their own block, whether it stands above or below them.

Columns and labels:
[1] = molecular target: T1, LigA, alpha subunit of protocatechuate 4,5-dioxygenase (LigAB), wild-type (Sphingobium sp. strain SYK-6, UniProt P22635 1-139); test: pull-down; co-purification of untagged LigB with His6-LigA on HisPur Ni-NTA resin from lysate of co-expressing E. coli, aerobic; 50 mM HEPES, 300 mM NaCl, pH 8.0, imidazole step gradient (62.5, 125, 250 mM); fractions on SDS-PAGE, Coomassie, quantified with ImageQuant; settings: partners not purified
T1 construct: Protocatechuate 4,5-dioxygenase alpha chain (LigA), Sphingobium sp. strain SYK-6; 17.711 kDa with the His6-tag; also called α subunit; source: E. coli BL21, pET15b, co-expressed with LigB; in lysate and purified (Ni-NTA); not shown: His6, N-terminal, kept
T1 sequence: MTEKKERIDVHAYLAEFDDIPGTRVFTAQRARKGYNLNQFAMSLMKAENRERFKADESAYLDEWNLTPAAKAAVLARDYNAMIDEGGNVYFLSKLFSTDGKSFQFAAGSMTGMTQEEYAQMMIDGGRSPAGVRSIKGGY

[2] = molecular target: T2, LigA F103A (Sphingobium sp. strain SYK-6, UniProt P22635 1-139, F103A); test: as above; settings: partners not purified
T2 construct: Protocatechuate 4,5-dioxygenase alpha chain (LigA), Sphingobium sp. strain SYK-6, with F103A; Site-directed mutagenesis as described by Barry et al; also called F103α to alanine; source: E. coli BL21, pET15b, co-expressed with LigB; in lysate and purified (Ni-NTA); not shown: His6, N-terminal, kept
T2 sequence: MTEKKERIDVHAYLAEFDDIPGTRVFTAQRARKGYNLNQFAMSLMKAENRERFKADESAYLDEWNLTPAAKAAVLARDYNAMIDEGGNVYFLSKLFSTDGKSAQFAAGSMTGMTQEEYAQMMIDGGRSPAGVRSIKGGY

[3] = molecular target: T3, LigA F103V (Sphingobium sp. strain SYK-6, UniProt P22635 1-139, F103V); test: as above; settings: partners not purified
T3 construct: Protocatechuate 4,5-dioxygenase alpha chain (LigA), Sphingobium sp. strain SYK-6, with F103V; Site-directed mutagenesis as described by Barry et al; source: E. coli BL21, pET15b, co-expressed with LigB; in lysate; not shown: His6, N-terminal, kept
T3 sequence: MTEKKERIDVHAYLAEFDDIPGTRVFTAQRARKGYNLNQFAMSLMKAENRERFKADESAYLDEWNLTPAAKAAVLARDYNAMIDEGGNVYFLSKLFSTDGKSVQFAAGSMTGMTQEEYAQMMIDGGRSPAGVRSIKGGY

[4] = molecular target: T4, LigA F103L (Sphingobium sp. strain SYK-6, UniProt P22635 1-139, F103L); test: as above; settings: partners not purified
T4 construct: Protocatechuate 4,5-dioxygenase alpha chain (LigA), Sphingobium sp. strain SYK-6, with F103L; Site-directed mutagenesis as described by Barry et al; source: E. coli BL21, pET15b, co-expressed with LigB; in lysate; not shown: His6, N-terminal, kept
T4 sequence: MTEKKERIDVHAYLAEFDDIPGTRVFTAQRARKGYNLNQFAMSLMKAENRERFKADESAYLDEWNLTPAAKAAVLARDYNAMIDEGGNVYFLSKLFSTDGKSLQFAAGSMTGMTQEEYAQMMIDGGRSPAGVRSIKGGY

[5] = molecular target: T5, LigA F103S (Sphingobium sp. strain SYK-6, UniProt P22635 1-139, F103S); test: as above; settings: partners not purified
T5 construct: Protocatechuate 4,5-dioxygenase alpha chain (LigA), Sphingobium sp. strain SYK-6, with F103S; Site-directed mutagenesis as described by Barry et al; source: E. coli BL21, pET15b, co-expressed with LigB; in lysate and purified (Ni-NTA); not shown: His6, N-terminal, kept
T5 sequence: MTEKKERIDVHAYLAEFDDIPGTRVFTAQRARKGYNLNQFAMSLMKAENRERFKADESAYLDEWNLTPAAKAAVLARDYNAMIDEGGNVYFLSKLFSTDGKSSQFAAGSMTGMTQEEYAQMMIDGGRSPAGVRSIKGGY

[6] = molecular target: T6, LigA F103T (Sphingobium sp. strain SYK-6, UniProt P22635 1-139, F103T); test: as above; settings: partners not purified
T6 construct: Protocatechuate 4,5-dioxygenase alpha chain (LigA), Sphingobium sp. strain SYK-6, with F103T; Site-directed mutagenesis as described by Barry et al; source: E. coli BL21, pET15b, co-expressed with LigB; in lysate; not shown: His6, N-terminal, kept
T6 sequence: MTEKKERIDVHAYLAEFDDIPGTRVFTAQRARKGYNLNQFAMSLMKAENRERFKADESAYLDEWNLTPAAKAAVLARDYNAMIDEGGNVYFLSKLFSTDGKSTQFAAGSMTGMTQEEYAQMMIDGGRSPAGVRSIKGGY

[7] = molecular target: T7, LigA F103H (Sphingobium sp. strain SYK-6, UniProt P22635 1-139, F103H); test: as above; settings: partners not purified
T7 construct: Protocatechuate 4,5-dioxygenase alpha chain (LigA), Sphingobium sp. strain SYK-6, with F103H; Site-directed mutagenesis as described by Barry et al; source: E. coli BL21, pET15b, co-expressed with LigB; in lysate; not shown: His6, N-terminal, kept
T7 sequence: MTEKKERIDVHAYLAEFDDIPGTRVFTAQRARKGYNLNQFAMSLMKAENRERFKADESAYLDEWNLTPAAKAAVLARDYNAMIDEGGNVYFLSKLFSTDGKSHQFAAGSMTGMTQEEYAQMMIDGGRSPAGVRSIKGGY

[8] = molecular target: the molecule itself; test: native gel or EMSA; 10% native polyacrylamide gel of purified LigAB (wild-type, F103A, F103S), Coomassie stained, 6.25 to 50 ug protein per lane; masses calculated from the bands

α:β ratio of abundances in elution fractions E3-1 to E3-5 [1]: 1.08 | β:α ratio of abundances in elution fractions E3-1 to E3-5 [1]: 0.928 | α:β ratio of abundances in elution fractions E3-1 to E3-5 [2]: 0.817 | β:α ratio of abundances in elution fractions E3-1 to E3-5 [2]: 1.22 | α:β ratio of abundances in elution fractions E3-1 to E3-5 [3]: 0.79 | β:α ratio of abundances in elution fractions E3-1 to E3-5 [3]: 1.27 | α:β ratio of abundances in elution fractions E3-1 to E3-5 [4]: 0.879 | β:α ratio of abundances in elution fractions E3-1 to E3-5 [4]: 1.14 | α:β ratio of abundances in elution fractions E3-1 to E3-5 [5]: 1.04 | β:α ratio of abundances in elution fractions E3-1 to E3-5 [5]: 0.959 | α:β ratio of abundances in elution fractions E3-1 to E3-5 [6]: 1.64 | β:α ratio of abundances in elution fractions E3-1 to E3-5 [6]: 0.608 | α:β ratio of abundances in elution fractions E3-1 to E3-5 [7]: 2.19 | β:α ratio of abundances in elution fractions E3-1 to E3-5 [7]: 0.456
B1: LigB, beta subunit of protocatechuate 4,5-dioxygenase (LigAB) (natural protein, Sphingobium sp. strain SYK-6)
chain: MARVTTGITSSHIPALGAAIQTGTSDNDYWGPVFKGYQPIRDWIKQPGNMPDVVILVYNDHASAFDMNIIPTFAIGCAETFKPADEGWGPRPVPDVKGHPDLAWHIAQSLILDEFDMTIMNQMDVDHGCTVPLSMIFGEPEEWPCKVIPFPVNVVTYPPPSGKRCFALGDSIRAAVESFPEDLNVHVWGTGGMSHQLQGPRAGLINKEFDLNFIDKLISDPEELSKMPHIQYLRESGSEGVELVMWLIMRGALPEKVRDLYTFYHIPASNTALGAMILQPEETAGTPLEPRKVMSGHSLAQA
notes: Protocatechuate 4,5-dioxygenase beta chain (LigB), Sphingobium sp. strain SYK-6; 33.292 kDa; untagged; also called β subunit; source: E. coli BL21, pET15b, co-expressed with His6-LigA (wild-type or mutant); in lysate and co-purified (Ni-NTA)

B2: LigAB α/β heterodimer, wild-type (protocatechuate 4,5-dioxygenase) (complex, Sphingobium sp. strain SYK-6)
chain 1: MTEKKERIDVHAYLAEFDDIPGTRVFTAQRARKGYNLNQFAMSLMKAENRERFKADESAYLDEWNLTPAAKAAVLARDYNAMIDEGGNVYFLSKLFSTDGKSFQFAAGSMTGMTQEEYAQMMIDGGRSPAGVRSIKGGY
chain 2: MARVTTGITSSHIPALGAAIQTGTSDNDYWGPVFKGYQPIRDWIKQPGNMPDVVILVYNDHASAFDMNIIPTFAIGCAETFKPADEGWGPRPVPDVKGHPDLAWHIAQSLILDEFDMTIMNQMDVDHGCTVPLSMIFGEPEEWPCKVIPFPVNVVTYPPPSGKRCFALGDSIRAAVESFPEDLNVHVWGTGGMSHQLQGPRAGLINKEFDLNFIDKLISDPEELSKMPHIQYLRESGSEGVELVMWLIMRGALPEKVRDLYTFYHIPASNTALGAMILQPEETAGTPLEPRKVMSGHSLAQA
notes: Protocatechuate 4,5-dioxygenase alpha chain (LigA), Sphingobium sp. strain SYK-6; as m1; Protocatechuate 4,5-dioxygenase beta chain (LigB), Sphingobium sp. strain SYK-6; as m2; The heterodimer as the unit that associates with itself in the native gel; also called wild-type LigAB; WT-LigAB; source: E. coli BL21, pET15b, co-expressed, purified (Ni-NTA); not shown: His6, N-terminal, kept
stoichiometry N [8]: 3

B3: LigAB α/β heterodimer with LigA F103A (complex, Sphingobium sp. strain SYK-6)
chain 1: MTEKKERIDVHAYLAEFDDIPGTRVFTAQRARKGYNLNQFAMSLMKAENRERFKADESAYLDEWNLTPAAKAAVLARDYNAMIDEGGNVYFLSKLFSTDGKSAQFAAGSMTGMTQEEYAQMMIDGGRSPAGVRSIKGGY
chain 2: MARVTTGITSSHIPALGAAIQTGTSDNDYWGPVFKGYQPIRDWIKQPGNMPDVVILVYNDHASAFDMNIIPTFAIGCAETFKPADEGWGPRPVPDVKGHPDLAWHIAQSLILDEFDMTIMNQMDVDHGCTVPLSMIFGEPEEWPCKVIPFPVNVVTYPPPSGKRCFALGDSIRAAVESFPEDLNVHVWGTGGMSHQLQGPRAGLINKEFDLNFIDKLISDPEELSKMPHIQYLRESGSEGVELVMWLIMRGALPEKVRDLYTFYHIPASNTALGAMILQPEETAGTPLEPRKVMSGHSLAQA
notes: Protocatechuate 4,5-dioxygenase alpha chain (LigA), Sphingobium sp. strain SYK-6, with F103A; as m3; Protocatechuate 4,5-dioxygenase beta chain (LigB), Sphingobium sp. strain SYK-6; as m2; The heterodimer as the unit that associates with itself in the native gel; also called F103A mutant enzyme; source: E. coli BL21, pET15b, co-expressed, purified (Ni-NTA); not shown: His6, N-terminal, kept
binding result [8]: binds

B4: LigAB α/β heterodimer with LigA F103S (complex, Sphingobium sp. strain SYK-6)
chain 1: MTEKKERIDVHAYLAEFDDIPGTRVFTAQRARKGYNLNQFAMSLMKAENRERFKADESAYLDEWNLTPAAKAAVLARDYNAMIDEGGNVYFLSKLFSTDGKSSQFAAGSMTGMTQEEYAQMMIDGGRSPAGVRSIKGGY
chain 2: MARVTTGITSSHIPALGAAIQTGTSDNDYWGPVFKGYQPIRDWIKQPGNMPDVVILVYNDHASAFDMNIIPTFAIGCAETFKPADEGWGPRPVPDVKGHPDLAWHIAQSLILDEFDMTIMNQMDVDHGCTVPLSMIFGEPEEWPCKVIPFPVNVVTYPPPSGKRCFALGDSIRAAVESFPEDLNVHVWGTGGMSHQLQGPRAGLINKEFDLNFIDKLISDPEELSKMPHIQYLRESGSEGVELVMWLIMRGALPEKVRDLYTFYHIPASNTALGAMILQPEETAGTPLEPRKVMSGHSLAQA
notes: Protocatechuate 4,5-dioxygenase alpha chain (LigA), Sphingobium sp. strain SYK-6, with F103S; as m6; Protocatechuate 4,5-dioxygenase beta chain (LigB), Sphingobium sp. strain SYK-6; as m2; The heterodimer as the unit that associates with itself in the native gel; also called F103S variant; source: E. coli BL21, pET15b, co-expressed, purified (Ni-NTA); not shown: His6, N-terminal, kept
stoichiometry N [8]: 3 and 6
